Results published in patent publication US20160244528A1 (SORRENTO THERAPEUTICS, published 2016).
Substitutions are numbered along the chain they refer to. Each block holds one binder with its values, some of them ahead of it.

Experiments:
[1] = molecular target: T1, Recombinant human CD137/His (human, UniProt Q07011 24-186); assay: SPR (Biacore), antibody captured on anti-human Fc, human CD137/His as analyte, 1:1 fit
T1 construct: Analyte of the SPR assay; also called 4-1BB; TNFRSF9; not shown: His tag
Method: This example illustrates binding affinities of exemplary anti-CD137 antibodies disclosed herein. Affinities were determined using surface plasmon resonance (Biacore). Briefly, anti-human Fc antibody (GE, BR-1008-39) was immobilized on CM5 sensor chip to approximately 1000 RU using standard NHS/EDC coupling methodology. Antibodies (about 10 μg/ml) were captured for 60 s at a flow rate 10 μl/min Recombinant human CD137/His was serially diluted in running buffer (HBS-EP). All measurements were conducted with a flow rate of 30 μL/min Surfaces were regenerated with 3M MgCl₂ for 60 s. A 1:1 (Langmuir) binding model was used to fit the data.

mouse CD137/Fc = molecular target: T2, mouse CD137/Fc (mouse, UniProt P20334 24-187); assay: ELISA, plate coated with mouse CD137/Fc at 2 µg/mL, detection with HRP anti-human Lambda, OD 450 nm
T2 construct: Coated on the ELISA plate at 2 µg/mL; also called murine CD137; not shown: Fc part
T2 sequence (looked up): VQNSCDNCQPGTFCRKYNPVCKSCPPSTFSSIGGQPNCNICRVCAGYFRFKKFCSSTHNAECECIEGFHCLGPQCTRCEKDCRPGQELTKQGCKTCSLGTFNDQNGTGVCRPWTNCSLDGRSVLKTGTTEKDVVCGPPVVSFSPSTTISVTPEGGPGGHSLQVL
Method: A Maxisorp plate was coated with recombinant human CD137/Fc or mouse CD137/Fc at 2 μg/mL at 4° C., overnight. The plate was blocked for 1 hour at room temperature, washed 3 times with PBS-Tween (PBST), then anti-CD137 antibodies (˜1 μg/mL) diluted in casein were added and incubated for 30 min with shaking. The plate was washed 3 times with PBST, horseradish peroxidase (HRP)-conjugated mouse anti-human Lambda (1:1000 in casein) was added, then 3,3′,5,5′-Tetramethylbenzidine (TMB) was added as substrate and developed about 5 min. 2M H₂SO₄ was used to stop the reaction and the OD was read at 450 nm.

B1: anti-CD137 antibody D6 (antibody, V domains shown)
VH: QMQLVQSGAEVKKPGASVKVSCKASGYTFTGYYMHWVRQAPGQGLEWMGWINPNSGGTNYAQKFQGRVTITRDTSASTAYMELSSLRSEDTAVYYCAREGEAVGLDLDYWGQGTLVTVSS
VL: SYELTQPPSVSVAPGKTARITCGGNNIGSKSVHWYQQKPGQAPVLVIYYDSDRPSGIPERFSGSNSGNTATLTISRVEAGDEADYYCQVWDSSSVVFGGGTQLTVL
notes: Fully human antibody, captured through anti-human Fc in SPR and detected with anti-human Lambda in ELISA
- Kd [1]: 203 nM
- koff [1]: 0.0814 s⁻¹
- kon [1]: 401000 M⁻¹ s⁻¹
- binding result (mouse CD137/Fc): no binding

B4: anti-CD137 antibody MB12 (antibody, V domains shown)
VH: B1 VH with T28S, F29L, T30E
VL: B1 VL
notes: Variant of D6 with the same light chain variable domain
- Ka [1]: 6.47e+06 M⁻¹
- koff [1]: 0.0669 s⁻¹
- kon [1]: 433000 M⁻¹ s⁻¹
- binding result (mouse CD137/Fc): no binding

B5: anti-CD137 antibody MB3 (antibody, V domains shown)
VH: B1 VH with T28Q, F29M, T30R
VL: B1 VL
notes: as for B4
- koff [1]: 0.0678 s⁻¹
- kon [1]: 296000 M⁻¹ s⁻¹
- binding result (mouse CD137/Fc): no binding

B6: anti-CD137 antibody MC8 (antibody, V domains shown)
VH: B1 VH with T28M, F29P, T30D, N54R, S55T, E101A, V103F, G104R, D106E, Y109A
VL: B1 VL
notes: as for B4
- Ka [1]: 3.32e+07 M⁻¹
- koff [1]: 0.00628 s⁻¹
- kon [1]: 208000 M⁻¹ s⁻¹

B9: anti-CD137 antibody MD4 (antibody, V domains shown)
VH: B1 VH with T28N, F29W, N54M, S55A, E101W, V103R, L105V, D106E, Y109M
VL: B1 VL
notes: as for B4
- Ka [1]: 1.12e+07 M⁻¹
- Kd [1]: 88.9 nM
- koff [1]: 0.0512 s⁻¹
- kon [1]: 576000 M⁻¹ s⁻¹

More lines, now with the values ahead:

- Ka [1]: 1.14e+07 M⁻¹
- koff [1]: 0.0324 s⁻¹
- kon [1]: 369000 M⁻¹ s⁻¹
B2: anti-CD137 antibody MSH1 (antibody, V domains shown)
VH: B1 VH with T28N, T30G, I51V, N54H, V103W, Y109L
VL: B1 VL
notes: as for B4

- koff [1]: 0.0615 s⁻¹
- kon [1]: 282000 M⁻¹ s⁻¹
- binding result (mouse CD137/Fc): no binding
B3: anti-CD137 antibody MSC8 (antibody, V domains shown)
VH: B1 VH with T28N, T30G, I51V, N54K
VL: B1 VL
notes: as for B4

- Ka [1]: 2.13e+07 M⁻¹
- koff [1]: 0.00631 s⁻¹
- kon [1]: 135000 M⁻¹ s⁻¹
B7: anti-CD137 antibody MSA11 (antibody, V domains shown)
VH: B1 VH with T28S, I51V, N54K, E101W, V103R, G104R, L105I, Y109E
VL: B1 VL
notes: as for B4

- Ka [1]: 6.03e+07 M⁻¹
- koff [1]: 0.00756 s⁻¹
- kon [1]: 456000 M⁻¹ s⁻¹
B8: anti-CD137 antibody MSB7 (antibody, V domains shown)
VH: B1 VH with T28S, T30S, I51V, N54M, E101M, V103M, G104R, D106E, Y109K
VL: B1 VL
notes: as for B4
